US20020197702

T1: DEVD-amc (Acetyl-Asp-Glu-Val-Asp-aminomethylcoumarin)
T1 chain: DEVD

T2: membrane derived procaspase-3, P42574
T2 chain: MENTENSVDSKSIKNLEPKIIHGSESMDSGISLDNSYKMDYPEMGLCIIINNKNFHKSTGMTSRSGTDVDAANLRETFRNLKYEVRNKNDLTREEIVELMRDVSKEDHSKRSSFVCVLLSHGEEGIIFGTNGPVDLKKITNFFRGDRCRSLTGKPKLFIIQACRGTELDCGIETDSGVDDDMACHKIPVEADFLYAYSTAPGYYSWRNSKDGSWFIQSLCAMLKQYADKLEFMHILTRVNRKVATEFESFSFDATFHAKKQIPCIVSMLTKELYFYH

B1: r-caspase-3 (His)6 (protein)
chain 1: SGISLDNSYKMDYPEMGLCIIINNKNFHKSTGMTSRSGTDVDAANLRETFRNLKYEVRNKNDLTREEIVELMRDVSKEDHSKRSSFVCVLLSHGEEGIIFGTNGPVDLKKITNFFRGDRCRSLTGKPKLFIIQACRGTELDCGIETD
chain 2: SGVDDDMACHKIPVEADFLYAYSTAPGYYSWRNSKDGSWFIQSLCAMLKQYADKLEFMHILTRVNRKVATEFESFSFDATFHAKKQIPCIVSMLTKELYFYHHHHHHH
B2: recombinant murine caspase-1 (protein)
chain: NKEDGTFPGLTGTLKFCPLEKAQKLWKENPSEIYPIMNTTTRTRLALIICNTEFQHLSPRVGAQVDLREMKLLLEDLGYTVKVKENLTALEMVKEVKEFAACPEHKTSDSTFLVFMSHGIQEGICGTTYSNEVSDILKVDTIFQMMNTLKCPSLKDKPKVIIIQACRGEKQGVVLLKDSVRDSEEDFLTDAIFEDDGIKKAHIEKDFIAFCSSTPDNVSWRHPVRGSLFIESLIKHMKEYAWSCDLEDIFRKVRFSFEQPEFRLQMPTADRVTLTKRFYLFPGH
B3: affinity purified membrane derived caspase-3 from 697 cell heavy membranes (protein)
chain 1: KNLEPKIIHGSESMDSGISLDNSYKMDYPEMGLCIIINNKNFHKSTGMTSRSGTDVDAANLRETFRNLKYEVRNKNDLTREEIVELMRDVSKEDHSKRSSFVCVLLSHGEEGIIFGTNGPVDLKKITNFFRGDRCRSLTGKPKLFIIQACRGTELDCGIETD
chain 2: SGVDDDMACHKIPVDADFLYAYSTAPGYYSWRNSKDGSWFIQSLCAMLKQYADKLEFMHILTRVNRKVATEFESFSFDATFHAKKQIPCIVSMLTKELYFYH

Tests used:
[1] = biological target: T1, DEVD-amc …
[2] = biological target: T2, membrane derived procaspase-3, P42574

Row | Protein | kcat/KM for DEVD-AMC hydrolysis [1] | activation of DEVD-AMC hydrolysis activity in heavy membranes [2] | time course of activation of DEVD-AMC hydrolysis activity [2] | KM for DEVD-AMC hydrolysis [1]
1 | B1 | the kcat/KM value for the recombinant caspase-3 (1,200,000 M^-1sec^-1) |  |  | 
2 | B2 |  | Treatment with recombinant caspase-1 causes a rapid, robust activation of the membrane caspase | The lack of a detectable time lag in the time course plot | 
3 | B3 | must be >=400,000 M^-1sec^-1 |  |  | The observed KM value for the purified caspase (10 uM)
